Biological target: SARS-CoV-2 spike (S) protein receptor binding domain (RBD), wild type (SARS-CoV-2, UniProt P0DTC2)
Assay: SPR

B1: dog angiotensin-converting enzyme 2 (dACE2) ectodomain, 6xHis (receptor)
chain: MQSTEDLVKTFLEKFNYEAEELSYQSSLASWNYNINITDENVQKMNNAGAKWSAFYEEQSKLAKTYPLEEIQDSTVKRQLRALQHSGSSVLSADKNQRLNTILNSMSTIYSTGKACNPSNPQECLLLEPGLDDIMENSKDYNERLWAWEGWRSEVGKQLRPLYEEYVALKNEMARANNYEDYGDYWRGDYEEEWENGYNYSRNQLIDDVEHTFTQIMPLYQHLHAYVRTKLMDTYPSYISPTGCLPAHLLGDMWGRFWTNLYPLTVPFGQKPNIDVTNAMVNQSWDARKIFKEAEKFFVSVGLPNMTQEFWENSMLTEPSDSRKVVCHPTAWDLGKGDFRIKMCTKVTMDDFLTAHHEMGHIQYDMAYAAQPFLLRNGANEGFHEAVGEIMSLSAATPNHLKNIGLLPPSFFEDSETEINFLLKQALTIVGTLPFTYMLEKWRWMVFKGEIPKDQWMKTWWEMKRNIVGVVEPVPHDETYCDPASLFHVANDYSFIRYYTRTIYQFQFQEALCQIAKHEGPLHKCDISNSSEAGQKLLEMLKLGKSKPWTYALEIVVGAKNMDVRPLLNYFEPLFTWLKEQNRNSFVGWNTDWSPYADQSIKVRISLKSALGEKAYEWNNNEMYLFRSSIAYAMRQYFSEVKNQTIPFVEDNVWVSDLKPRISFNFFVTSPGNVSDIIPRTEVEEAIRMYRSRINDVFRLDDNSLEFLGIQPTLGPPYEPPVT
B1 gave a koff of 0.0139 s⁻¹.

Source: paper PMC8263772 (2021)
